For test [1], the target named is TAG-72 expressed on the cell surface of Jurkat cells (human). Nature of the test: flow cytometry on Jurkat cells expressing cell-surface TAG-72, antibody amount not given, FITC-conjugated mouse anti-human antibody.
Test [2] concerns the target TAG-72 positive bovine submaxillary mucin (BSM) (bovine). Nature of the test: SPR (BIAcore X), control Fab over immobilised BSM, BSA reference. (In SPR one partner is held on a chip, and binding of the other changes the refractive index at the surface.)
Test [3] addresses TAG-72 expressed on the cell surface of Jurkat cells (human). The experiment in a line: flow cytometry on Jurkat cells expressing cell-surface TAG-72, 1 ug antibody, FITC-conjugated mouse anti-human antibody. For orientation: A flow cytometer gives signals particle by particle.

The koff is a measure of how fast the partners let go of each other.

For the substance “human immunoglobulin G (HuIgG) control (antibody)”, in test [1], the % Gated, marker M1 was found to be 99.7%; the % Gated, marker M2 is 0.31%; the % Total, marker M1 turned out to be 92.1%; the % Total, marker M2 came to 0.29%. In test [1], the Mean, marker All was 3.54; the Mean, marker M1 is 3.49; the Mean, marker M2 was found to be 20.5.

In the case of Fab derived from murine CC49, the dissociation rate constant (koff) in test [2] stood at 0.000104 s⁻¹.

In test [3], HuCC49 (antibody) gave a % Gated, marker M1 of 70.8%; a % Gated, marker M2 of 29.4%; a % Total, marker M1 of 60.6%; a % Total, marker M2 of 25.2%. Also, in test [3], the Mean, marker All was determined as 18; the Mean, marker M1 worked out at 4.36; the Mean, marker M2 came to 50.9.

With Fab derived from human IgG, in test [2], the koff stood at 0.0138 s⁻¹.

Consider cCC49 (antibody), for which, in test [3], the % Gated, marker M1 worked out at 27.2%; the % Gated, marker M2 is 73%; the % Total, marker M1 was found to be 12.2%; the % Total, marker M2 was determined as 32.7%. For the same substance, in test [3], the Mean, marker All came to 41.6; the Mean, marker M1 was determined as 5.92; the Mean, marker M2 amounted to 54.8.

The record behind these values is patent US20060165680A1.
